# Measured values reported in publication PMC12784961, “Structure of Bacillus subtilis Ku-mediated DNA synaptic complex”.
# T1: bsKu core L30G (Bacillus subtilis, UniProt O34859 18-244, L30G)
# T1 sequence: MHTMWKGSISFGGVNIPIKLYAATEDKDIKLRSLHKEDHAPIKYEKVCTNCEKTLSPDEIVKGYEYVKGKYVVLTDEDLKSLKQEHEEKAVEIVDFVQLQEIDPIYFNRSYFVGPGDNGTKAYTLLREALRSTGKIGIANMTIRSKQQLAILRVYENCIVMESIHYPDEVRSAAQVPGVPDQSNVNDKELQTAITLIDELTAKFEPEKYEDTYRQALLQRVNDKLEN
# T2: bsKu core N32E (Bacillus subtilis, UniProt O34859 18-244, N32E)
# T2 sequence: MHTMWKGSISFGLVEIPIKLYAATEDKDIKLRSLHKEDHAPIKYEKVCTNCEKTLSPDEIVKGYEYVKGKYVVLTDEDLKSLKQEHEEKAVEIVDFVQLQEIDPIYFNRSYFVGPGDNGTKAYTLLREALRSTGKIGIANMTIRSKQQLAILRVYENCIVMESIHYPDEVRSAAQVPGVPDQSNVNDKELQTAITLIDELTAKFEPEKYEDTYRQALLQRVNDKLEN
# What was measured:
# [1] = biological target: T1, bsKu core L30G; assay: EMSA; no significant loss of binding; EMSA: 20 mM HEPES pH 7.5, 150 mM KCl, 1 mM DTT, 50 nM DNA, 30 min at 4°C, 15% native PAGE in 0.5x TBE, SYBR Gold; SEC: same buffer, protein:DNA 1:2, 1 h at 4°C, Superdex 75; details: protein: recombinant; tags: N-terminal 8xHis-MBP, cleaved; chain copies: 2; blunt
# [2] = biological target: T2, bsKu core N32E; assay: as above; details: protein: recombinant; tags: N-terminal 8xHis-MBP, cleaved; chain copies: 2; blunt
binder,measurement,setting,value
13-bp DNA (dsDNA) DNA 1: GTACCTGTAGAAG DNA 2: CTTCTACAGGTAC,binding result,[1],binds
same,binding result,[2],binds
